Reference: patent publication US20080227698A1, “OLIGOPEPTIDES FOR TREATMENT OF OSTEOPOROSIS AND OTHER BONE DISEASES AND METHODS THEREOF” (Washington University, priority 2005, published 2008)

Biological target: LRP5 (Homo sapiens, UniProt O75197)
Experiment: ^125I-Mesd binding to HEK293 cells transiently transfected with LRP5
Settings: ^125I-Mesd 5 nM, 4 hours at 4° C., HEK293 cells transfected with Myc-tagged LRP5
Experimental: Cells (2×10^5) were seeded into 12-well dishes 1 day prior to assay. Ligand-binding buffer (minimal Eagle's medium containing 0.6% BSA with a different concentration of radioligand, 0.6 ml/well) was added to cell monolayers, in the absence or the presence of 500 nM unlabeled RAP or 500 nM unlabeled Mesd, followed with incubation for 0-4 hours at 4° C. Thereafter, overlying buffer containing unbound ligand was removed, and cell monolayers were washed and lysed in low-SDS lysis buffer (62.5 mM Tris-HCl pH 6.8, 0.2% SDS, 10% v/glycerol) and counted.
To determine whether Mesd binds to other members of the LDLR family, ^125I-Mesd binding analysis was performed with four groups of cells expressing different members of the LDLR family (FIG. 2). In the first experiment, HEK293 cells were transiently transfected with cDNAs for the LDLR, LRP5, LRP6 or empty pcDNA3 vector. […]

Chain of LRP5 (O75197 32-1615): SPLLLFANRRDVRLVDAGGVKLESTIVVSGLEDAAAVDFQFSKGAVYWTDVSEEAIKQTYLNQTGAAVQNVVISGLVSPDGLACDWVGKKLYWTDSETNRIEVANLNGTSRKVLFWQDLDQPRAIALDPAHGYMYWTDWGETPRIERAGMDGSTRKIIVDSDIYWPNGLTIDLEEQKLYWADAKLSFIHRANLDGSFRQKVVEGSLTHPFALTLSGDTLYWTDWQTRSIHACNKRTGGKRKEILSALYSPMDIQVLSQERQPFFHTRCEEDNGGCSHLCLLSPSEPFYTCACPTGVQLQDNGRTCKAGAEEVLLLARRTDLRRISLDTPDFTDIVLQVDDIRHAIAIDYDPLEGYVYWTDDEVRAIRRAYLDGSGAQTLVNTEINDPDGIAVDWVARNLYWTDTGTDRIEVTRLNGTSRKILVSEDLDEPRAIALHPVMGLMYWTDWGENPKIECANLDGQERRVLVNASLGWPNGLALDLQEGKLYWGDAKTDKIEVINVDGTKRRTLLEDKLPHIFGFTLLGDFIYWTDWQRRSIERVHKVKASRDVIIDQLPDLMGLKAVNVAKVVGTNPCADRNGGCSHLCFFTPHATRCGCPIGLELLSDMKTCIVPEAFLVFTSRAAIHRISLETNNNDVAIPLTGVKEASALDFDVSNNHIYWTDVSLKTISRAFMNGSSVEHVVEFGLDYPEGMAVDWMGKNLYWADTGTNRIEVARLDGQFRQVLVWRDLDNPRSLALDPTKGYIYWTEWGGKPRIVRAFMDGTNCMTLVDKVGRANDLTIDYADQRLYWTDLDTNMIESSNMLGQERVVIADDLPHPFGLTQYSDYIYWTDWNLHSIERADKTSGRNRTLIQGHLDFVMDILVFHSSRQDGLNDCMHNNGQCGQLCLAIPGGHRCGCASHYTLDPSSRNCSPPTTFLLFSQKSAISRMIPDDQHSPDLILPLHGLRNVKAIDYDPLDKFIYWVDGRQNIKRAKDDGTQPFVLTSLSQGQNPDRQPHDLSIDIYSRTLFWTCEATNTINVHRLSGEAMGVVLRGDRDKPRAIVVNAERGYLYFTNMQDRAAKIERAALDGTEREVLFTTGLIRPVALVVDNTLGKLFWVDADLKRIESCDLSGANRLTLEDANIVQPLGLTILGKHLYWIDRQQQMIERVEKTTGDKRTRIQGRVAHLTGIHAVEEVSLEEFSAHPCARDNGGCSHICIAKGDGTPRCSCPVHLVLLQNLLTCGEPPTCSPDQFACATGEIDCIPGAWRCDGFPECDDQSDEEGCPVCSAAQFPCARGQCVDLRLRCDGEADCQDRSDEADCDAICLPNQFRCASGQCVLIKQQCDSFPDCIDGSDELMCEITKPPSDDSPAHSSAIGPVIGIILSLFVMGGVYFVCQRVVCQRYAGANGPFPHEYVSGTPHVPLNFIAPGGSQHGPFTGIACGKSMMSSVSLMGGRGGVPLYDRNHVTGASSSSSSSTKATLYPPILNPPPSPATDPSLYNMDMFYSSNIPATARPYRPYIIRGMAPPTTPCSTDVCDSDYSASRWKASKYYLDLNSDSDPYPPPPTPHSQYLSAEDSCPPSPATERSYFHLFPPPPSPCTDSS

B1: Mesd: recombinant wild-type mouse Mesd, polyhistidine tail at the N-terminus, lacks the signal peptide, expressed in E. coli (protein)
chain: ADTPGEATPPPRKKKDIRDYNDADMARLLEQWEKDDDIEEGDLPEHKRPSAPIDFSKLDPGKPESILKMTKKGKTLMMFVTVSGNPTEKETEEITSLWQGSLFNANYDVQRFIVGSDRAIFMLRDGSYAWEIKDFLVSQDRCAEVTLEGQMYPGKGGGSKEKNKTKPEKAKKKEGDRKPRASKEDNRAGSRREDL
modifications: left off: small tags and cut ends
notes: recombinant wild-type mouse Mesd, polyhistidine tail at the N-terminus, lacks the signal peptide, expressed in E. coli
  Specific ^125I-Mesd binding to LRP5: specifically binds to Mesd, albeit at lower levels compared to LRP6
